Source: a protein production outcome set (Wang et al. 2014)

Assay: label from the status in PepcDB records
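Further: failed if final PepcDB status was selected cloned or expressed and not failed if soluble or beyond.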

| Sequence | protein production |
| --- | --- |
| MLIRPTLEPDITWLPDVERSAAQAFVSWPALAWLAQGDVMDCAAHRAFVEAGGSWVAQDATGRIVGFACARLADQALHLHEISVRQEAQGQGVGRRLLQQVVDAGRCAGVRELTLTTFVDVPWNAPFYARFGFEMLQESRLCERLRGILASEHAHGLLGRCAMRLNVGL | failed |
| MSVEAAKNARELLLKEYRAVLSTHSKKWPGFPFGSVVPYCLDAEGRPLILISRIAQHTHNLQADPRCSMLVGERGAEDIQAVGRLTLLAEARQLAEEEVAAAAERYYRYFPESADYHRVHDFDFWVLQPVQWRFIGGFGAIHWLAAERVPLANPFAGEAERGMVEHMNSDHAAAIAHYVELAGLPAHAAAQLAGIDTEGFHLRIGQGLHWLPFPAACGNPGAVRQALVQLARAERWPTVEPEQG | not failed |
| ADWPDRFNLRKPFEKLLYSGSRTGFRLASERSAKQAKGPRKADPDGLFDLSFSDDQQMLVDMLEGFALEVLRPLAHDADAEASLPAELLNQALELGLTHYGVGEVHGGMAGERTTVTTALIAEALAKGDLTLAAALLVPLSAANCIRRWGSPSQQAQWLPAFVSEEGAPLTAIAVNEPSLLFDPQKLATRARRKGSHYLLSGEKCLVLRGLEASRLIVAAKTDEGPALFLVEASAKGVERRAEPAMGLKAGGTARLRLKSVKVPADNRLAAEHFDYRAFLDHASLAWCALALGTGQAALDYVIAYCNEREAFGEPISHRQGVAFMVADIAIELDAMRLMVWRACALAERGQPFQREAYLARLLCAEKAMKIGTDAVQLLGGHGFTKEHPAERWYR | failed |
| LRKMIALIHKDYAKNLRLETLASVFNYNRAYLGKLFKNYTGEYFNTYLDKVRIENGKRLLQKGYKVYEVAEKIGYANVDYFHRKFKKYVGVSPSTFRKR | not failed |
| MDPKKADIIRLEALPQDLLGGIVAKVGATTAEDFHNCILVCKELGASANDKHVFKTLNLALLVKKPLSGTQTPSYYENMS | not failed |
| MSLRHLYIEEGRTVCASATSRNRRPTSESPHSDDVVVVEGMLRGRPETRVHAMFDGFQGRHSAMWLAQNVMNYLNDLRDVNEEEITRQFERMDGDLRAANLPGGSSALIIFVRYEKKPTEARVVGRQIVPEGAKEFTSVAEALGGPLMPVVAMNFRRDPRAAKGIYTIHVASLGNSRCVLKSGRTAIHLSTPHTASSHKERHRVQAAGGVFTTVNGELLLGGVVPMTRAFGSFDFKKGGQGKLQQDLVSAVPDVTTFFAYPGDDIVAGTAGAFAHFRSHAAIAAAIALYPVSPETVLDAAKAMVVNAKRRKVTKNISTFVRHLPESRTRSQKMLEGTSGENGEEDFSIDRTNELTQALQAGFFSFLLYYEGHHHHHH | not failed |
| MLLKILVKLIILDSSCSFLERFKLIIDCYTNKDIPDIDRQLPIWMLWRIWKSRNLSVYQHKSSTWREDFIKTVNDATEWALVWTIDSTTNIQTRQVQSRTHHSAWTRPKEDFVKCNFDCKFSKNNNVSQAGRSKGQHCSMSMEAELQALVMAMQHVWSKGYKKVIFEGDNLRLSSFLRKIKPTSKFTTGSEKIIIRKKGLAMLNSIGQEEKTTK | failed |
| MHQQIIKFWFEELTPQNWFENNPELDKHIASRFASVLEQAARCELFNWRDSAQGRLAEIIVLDQFSRNVYRNTPKAFAQDPLALALAQEAIRLGHDQELAPEQLSFLYMPFMHSESRLIHVEAEKLFRASGLENNYDFELKHKAIIDQFGRYPHRNAILGRESTPEELAFLQQPGSSF | not failed |
| MLNTFMFPGQGSQAKGMGGALFDRFADLTAQADAVLGYSIRALCVDDPRDELGRTQFTQPALYVVNALTYYAKCEDSGETPDFLAGHSLGEFNALLAAGCFDFETGLKLVARRAELMSQARDGAMAAIVNASREQIERTLDEHGLVDTAIANDNTPSQLVISGPAHEIARAEALFQHDRVRYLRLNTSGAFHSKFMRPAQQAFAAHLQSFRLADPAIPVISNVSARPYENGRVSEGLAQQIASPVRWCESIRYLLALAAERGEAIEFTELGHGDVLTRLVHTIRRQTPAPAAAATSARARPTPPGEPERPAQQTAAAPRASDSASASLGAAERVAAWNRDYPVGTRVRSSLIHDDVLETRTPATVLFGHRAAVYMKGYNGYFDLAEVTPA | not failed |
| RHQVESSPLFRALALRCNQTMVTLRSANMFHAYGFLAKVFEILAKHKISVDLITTSEISVSLTLDQTDTSGGAPQLPQAAREELEELCKVEVEHDLCLVALIGNKMSERKGYAKQVFGTLEDLNLRMICYGASPHNLCFLVNESVAKQAIQKLHTELFEQ | not failed |
| MSLGQTTLACSFRSLTNPYYTAFNKGAQSFAKSVGLPYVPLTTEGSSEKGIADIRALLQKTGGNLVLNVDPNDSADARVIVEACSKAGAYVTTIWNKPKDLHPWDYNPNYVAHLSYDGVAYGEETATQLFKSMGGKGGVVALGGIFSNVPAIERKAGLDAALKKFPGIQLLDFQVADWNSQKAFPIMQAWMTRFNSKIKGVWAANDDMALGAIEALRAEGLAGQIPVTGMDGTQPGLVAIKSGELVASVDWDPFWLGGIGLSMGLQAKEKKIDLATLPKDRRESFCTATFVTKTNVQDVIARAASPKAEWNNLYARVAGPVVYREGHHHHHH | not failed |
| MGHHHHHHSHVRSPQNQYPAELMRRFELYFQGPSSNKPRVIREVRADSVGKLVTVRGIVTRVSEVKPKMVVATYTCDQCGAETYQPIQSPTFMPLIMCPSQECQTNRSGGRLYLQTRGSRFIKFQEMKMQEHSDQVPVGNIPRSITVLVEGENTRIAQPGDHVSVTGIFLPILRTGFRQVVQGLLSETYLEAHRIVK | failed |
| MYTYKLQDEKPICSEKLKRLYDSVGWWPERKEIDIQKMLKNSIAIGVWKENELIGFARVVSDGVFRAYLEDVVVHESVRNKGIGEKMLTMLLEEISHINIVSLFCGEKLIKFYGQQQFQVTK | failed |
| MRACAPIFRLLGGGVEHLGKSGRPGSGGRWWPLCGWLALAALVPAVQAEEGEPAPVEASAAARLVDVNEYFVRGNTVLDARAIEEAVYPFLGPQKALADIEGARDALQKVYQERGYQSVFVELPEQKVEDGIVYLQVSETKVGRVRVVGAKHYSPVEIRDQVPALKEGEVPDFATVQSQLAGLNRGAGRQVMPLVREGQRPGTMDVDLQVEDQNPWHASVGLNNDYSADTEKLRTVVNVGYDNLWQLGHSISLTYFTAPQDTDNAKVWSGSYTAPLSDRWALQFSGYQSDSNIATIGGSNVLGKGHSYGVSAIYTLPAAGNWANSLSVGVDFKDFEEEMRFGRSSDQIPLKYAPMTFGYNGYRYSEKAQLGLGLNLIVGTRRFFGYGSDAEEFHYKRDEASASFSVLKGDLNFTYTFANDWQSASKAAFQLASGPLVSNEQYSAGGATSVRGYLAAERTGDEGYLFSQELRTPSLAKFLGSYVQEWRFYAFAEGAHLSLHDPLPEQEDEYSLASVGLGTRASLSKWLSGSLDWGYPLKDGPNTQKYDPRLHFSVQATF | failed |
| MSLSEIKRKFDAVSGKYDEQRRKFIPCFDDFYGVSVSIASVDTENPDILDLGAGTGLLSAFLMEKYPEATFTLVDMSEKMLEIAKNRFRGNLKVKYIEADYSKYDFEEKYDMVVSALSIHHLEDEDKKELYKRSYSILKESGIFINADLVHGETAFIENLNKTIWRQYVENSGLTEEEIAAGYERSKLDKDIEMNQQLNWLKEAGFRDVSCIYKYYQFAVMFGRKTEGHHHHHH | not failed |
| MRLMIIFDLPVETSEERKEYRKFRKNLINEGFIMIQYSVYVRVCVNKKSAEFTEKRIESFLPSKGVVQSLILTEKQYNDMHFLLGKKIKEVRNSAERTIIL | failed |
| SSPPSGCPMHEGKMKGCPVNTEPSGPTCEKKTYSVPAHQERAYEYVECPIRGTAAENKENLDPSNLMPPPNQTPAPDQPFALSTVREESSIPRADSEKKWVYPSEQMFWNAMLKKGWKWKDEDISQKDMYNIIRIHNQNNEQAWKEILKWEALHAAECPCGPSLIRFGGKAKEYSPRARIRSWMGYELPFDRHDWIINRCGTEVRYVIDYYDGGEVNKDYQFTILDVRPALDSLSAVWDRMKVAWWRWTS | failed |
| MKQLSFNKLYFEGIKDAIPISIGYLPIGMAFGVLAKSMGIPYEISILMSLIIFAGASQFVGVNLIAIGTSSFEIVLTTFILNLRHFLMSSSLSQRIDYTKSKKFLSLISFGVTDETFAVASLKEELKLSPEFLFGLNFTAFFAWNFGTVLGIFLAESIPKEIQSSMGISLYVMFIGLLIPAVRRSTKVLKIFLVAVFISSALTWVPVFKFISTGWIIIITTIVASFIGAKFIHGDGDE | failed |
| AAIRHITTGTYIARIREEYQQTEVKPELQPMKEALARMTDRAEALIAFVTEQKDQELLDFQARRLVEMTAHAVFGHLLMLAANDDDSFRQSAEVYLRYGQAEQEKIDSYVRAFRPEELTFYSRCSRPE | not failed |
| MTIAEIRKFAQTTQKFVEAENLFEHGNVVLPKKYLNKARGMAEVLYNSQVIKVSFTAKDGELTCKCSCLANVDNCVHIVAVLLKYHQMLVESKRSFNLAEAFHLDCDQAEMLIENLSLEIIAGGNFKLGFTINLDKHNPQPSVLRFYCCDATFVYFLHLENDTLHSVELSKFKPEERATLLFFDKLCKQFTVGYDRNSLLFPLAGFLKELQANTEPTIFVFNDDKIDNILFLRISKKHHGLNHVCGFSGKKVFDFVTYKQKEKQIVLRSAYLSKFTDFKFPYTINIYKLQFGEPLFFYFLIQLKRDGFKNFYFQSEDSIVKEKEYLPKLYFKVEYDPVKNKFVSDAFFKYKNHFNKGTTTVYPHRYYMAKKSDRGGFNRLLFYEEAVENFYQDQFDLGYFRKFEHLPIQDKNQIEAFKAALDDLMPVDLAEVSLSDNLLHQKPLHFALSDLEAVAVDDKQIKLSFAPSAVELKLIKRILSAYHKGNVVCIDQESWYDLKQPAAKELIQFNQFDLRNATSDGNHIYLPKYYLFEVAKIFSQYLDIKNLFDVPTIKKIEDQNNNVFDLSLEHKKITSLRNYQQEGVKIRGLEENKFGGILADEMGLGKTVQVIFALLDSYLKNHVNLPSLIIVPASLLLNKSEFEKFAPQIKVKVANIPSKERGELYEKLTNEILIVSFNVLRSDVKLITKQRFHYVVIDEAQGIKNDSSSITKAAKKVKGNFCLALTGTPIENRLLDLSCFDFVLPSFLGNKKQFTDQFEKEKTDQSFHLLMQRTSPFILRRTKSKVLKELPNKITTDIYVELNPMHQKLYEEERDRGLEEIKQIQDKSSFNILTLILKLRHLCSLPKNSQGILENSAKKEAALEIIHEAIENQRKIILFTQFIDVIDHFKDTFKEQGIEYFIFDGRKSPKSRHSIIEKFNNAKNPCVLLASLKAGGVGINLTAAEVVIHFDVWNTAVENQATDRAHRIGQKKTVQVYRIIAKNTIEERVCQVQAEKQELVSKTLVEDVNFFESLTNEELLRLFE | failed |
| MQAIAIDQFSEPEETQVEQVENPDRNEAGYEVCNQSGENLSVAIAYFDTSIDSYRSEGWWNLDQSKCQFFPNLLDSVDEVYVFAESDQTLWSGDFPFCMQEDAFEYPDANRDRCPSPAYSKGFLKVEVGDAKTWTTNLTPSQLEHHHHHH | failed |
| MIRLATKNDLLSITQLVKEAKQIMEEFNNNQWDDEYPAKEHFEEDIENKTLYVLDVDHTIYGFIVIDQNQSEWYDDIDWPVNRNGAYVIHRLAGSKQYKGAATELFQFAIDLANEHDIHVILTDTFALNKPAQGLFEKFGFTKVDEIEIDYHPFDRGAPFYAYYKNI | failed |
| MNPANGEVTSYWFPGTTSGILTRNGSMIHLLSITASVLHPDDPSLSERESVQVQQYRLSSLLAAVLLPVFGTLYSWADPQAVDPAWIRLALSGLLLGLFVGSYLSDRVCRNYVPLT | failed |
| SLDDHTRDPTVKAPDGNPSGWRTDGQWEHETLRRAVVHGVRLYNSGEFHESHDCFEDEWYNYGRGNTESKFLHGMVQVAAGAYKHFDFEDDDGMRSLFRTSLQYFRGVPNDYYGVDLLDVRTTVTNALSDPSALHGWQIRLDGEYPTCRPEDIEFAESLEH | not failed |
| MVNEYKAHSSFILKVVITLIGYWIASILAIIIYSMFFKIETNTFLLCLLLPTPIIWFNILIGMGLTYRCMENLTIYDKHKLWCVFVRDLTLTILATILATLTTMELYQIEHPLKPIEFVFIVGLVLIVGFTIITTLIIKYLKIIKNLKKISKN | failed |
